US20230212305A1, “ANTI-ABCG2 ANTIBODIES AND USES THEREOF” (Kenjockety Biotechnology, Inc., priority 2020, published 2023)

T1: ABCG2 (Homo sapiens, UniProt Q9UNQ0)
T1 construct: expressed in transfected cells
T1 sequence (Q9UNQ0 1-655): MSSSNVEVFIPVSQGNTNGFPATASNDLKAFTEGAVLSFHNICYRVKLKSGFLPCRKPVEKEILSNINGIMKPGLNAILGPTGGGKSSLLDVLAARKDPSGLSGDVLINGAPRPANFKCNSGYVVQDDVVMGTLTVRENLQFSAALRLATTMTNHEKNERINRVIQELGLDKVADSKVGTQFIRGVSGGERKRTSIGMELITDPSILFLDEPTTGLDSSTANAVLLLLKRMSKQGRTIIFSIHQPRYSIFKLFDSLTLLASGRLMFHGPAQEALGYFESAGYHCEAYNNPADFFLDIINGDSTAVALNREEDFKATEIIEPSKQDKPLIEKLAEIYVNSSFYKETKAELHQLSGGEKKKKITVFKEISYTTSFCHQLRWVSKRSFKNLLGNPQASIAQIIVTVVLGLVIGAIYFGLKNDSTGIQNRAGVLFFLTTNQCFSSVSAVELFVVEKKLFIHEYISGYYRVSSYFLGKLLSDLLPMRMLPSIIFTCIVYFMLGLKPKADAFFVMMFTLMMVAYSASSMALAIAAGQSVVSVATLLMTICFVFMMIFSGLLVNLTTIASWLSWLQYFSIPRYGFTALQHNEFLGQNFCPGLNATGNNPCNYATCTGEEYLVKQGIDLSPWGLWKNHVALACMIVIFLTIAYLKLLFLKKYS


Key:
293T_ABCG2_OX cells = assay type: cell-based, human; conditions: cell killing by topotecan on 293T_ABCG2_OX cells; viability relative to IgG control
Method: Cytotoxicity Assays. The effect of antibodies on topotecan cytotoxicity was evaluated on 293T_ABCG2_OX cells, 293T cells stably transfected to express ABCG2. Cells were plated in 0.05 mL of Assay Media (DMEM+10% FBS) at 5000 cells/well in white, flat bottom 96-well tissue culture plates. Topotecan was prepared at 2× final assay concentration by serial dilution from 200 uM in assay media containing test antibodies or control antibodies at 100 ug/mL (2× final concentration), or Fumitremorgin C, a small molecule ABCG2 inhibitor at 20 uM (2× final concentration). An equivalent volume (0.05 mL) of the topotecan/antibody mixture was added to the 293T_ABCG2_OX cells in 96-well plates. The plates were then incubated at 37° C., in 5% CO2. After 72-96 hr plates were equilibrated to room temperature and cell viability assessed using Promega® CellTiter-Glo® Luminescent Cell Viability Assay according to the manufacturer's recommended protocol. Luminescence was measured on a Molecular Devices® FlexStation® 3 Multi-Mode Microplate Reader and data analyzed using GraphPad Prism 8.0 software. Half maximal inhibitory concentration (1050) is the concentration of drug (topotecan or other chemotherapy cytotoxic agent) where the response (cell growth) is reduced by 50%.

cynomolgus ABCG2 = test: Flow cytometry binding to 293T cells overexpressing cynomolgus ABCG2; set-up: key to Cynomolgus ABCG2 binding: binding=“+”; non-significant binding=“−”; conditions: for binding to 293 cells overexpressing cynomolgus ABCG2 (cG2): FACS, FIG. 1
Summary of the method: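 293T cells stably overexpressing cynomolgus ABCG2 were incubated on ice for 30 min with antibody at 5 ug/mL or serial dilutions from 100 ug/mL. Bound antibody detected with PE-labelled anti-human IgG F(ab′)2 by flow cytometry; EC50 taken as concentration giving half-maximal response.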

HEK 293 naïve cells = test: FACS binding to HEK 293 naïve cells; set-up: species or system human; conditions: FIG. 1
ABCG2 [1] = target: T1, ABCG2; test: Flow cytometry binding to 293T cells overexpressing human ABCG2 (293T_ABCG2_OX); set-up: key to Binding by FACS: binding=“+”; non-significant binding=“−”; conditions: for Binding by FACS: 293T_ABCG2_OX cells; for binding to 293 cells overexpressing human ABCG2 (hG2): FACS, FIG. 1
Summary of the method: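 Antibodies serially diluted (from 100 ug/mL or about 666 nM) and incubated 30 min on ice with 293T cells stably expressing human or cynomolgus ABCG2, in PBS/2% FBS/0.02% azide. Bound antibody detected by PE anti-human IgG F(ab′)2, 20 min on ice, flow cytometry; EC50 = concentration giving half-maximal signal.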

ABCG2 [2] = target: T1, ABCG2; assay type: cell-based
Summary of the method: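 293T cells overexpressing ABCG2 (2×10e6 cells/ml, phenol red-free DMEM) treated with antibodies or inhibitors at 1 μM final, then loaded with 2.5 μM mitoxantrone 1 h at 37° C. After washing, mitoxantrone retention read as fluorescence (ex 635, em 647 nm) to measure efflux blockade.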

cynomolgus ABCG2, sequence (as listed by the source): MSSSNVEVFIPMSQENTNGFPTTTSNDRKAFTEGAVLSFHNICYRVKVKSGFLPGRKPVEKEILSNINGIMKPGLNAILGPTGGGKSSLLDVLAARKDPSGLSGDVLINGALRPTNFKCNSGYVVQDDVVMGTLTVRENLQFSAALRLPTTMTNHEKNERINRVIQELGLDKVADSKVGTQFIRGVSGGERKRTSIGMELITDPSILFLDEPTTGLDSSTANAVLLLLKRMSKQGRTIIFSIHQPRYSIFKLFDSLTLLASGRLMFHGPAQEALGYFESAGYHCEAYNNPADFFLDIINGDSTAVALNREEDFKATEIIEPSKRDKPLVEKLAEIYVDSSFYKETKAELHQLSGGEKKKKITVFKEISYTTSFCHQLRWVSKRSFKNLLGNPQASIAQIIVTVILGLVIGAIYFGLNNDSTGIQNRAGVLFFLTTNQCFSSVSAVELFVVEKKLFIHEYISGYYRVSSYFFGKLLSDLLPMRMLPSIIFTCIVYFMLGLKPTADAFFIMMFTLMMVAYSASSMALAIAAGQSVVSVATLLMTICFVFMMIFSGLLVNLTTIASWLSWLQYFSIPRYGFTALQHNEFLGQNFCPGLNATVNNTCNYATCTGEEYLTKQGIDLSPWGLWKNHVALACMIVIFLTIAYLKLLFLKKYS

Row | Molecule | Killing (293T_ABCG2_OX cells) | Cynomolgus ABCG2 binding (cynomolgus ABCG2) | binding to 293 cells overexpressing cynomolgus ABCG2 (cG2) (cynomolgus ABCG2) | binding to 293 naïve cells (HEK 293 naïve cells) | Binding by FACS (ABCG2 [1]) | binding to 293 cells overexpressing human ABCG2 (hG2) (ABCG2 [1]) | Block Efflux (ABCG2 [2])
1 | G2.302 mouse: anti-ABCG2 antibody raised in mouse, listed in Table 2 (antibody, V domains shown) VH: QIQLQQSGPELVRPGASVKISCKASGYTFTDYYINWVKQRPGQGLEWIGWIYPGNVNVKYNEKFKGKATLTVDTSSSTGYMQLRSLTSEDSAVYFCARSIGLRYFDNWGQGTTLTVSS VL: EKVLTQSPAIMSASLGEKVTMSCRASSSVHYMYWHQQKSDASPRLWIYYTSNLAPGVPARFSGSGSGNFYSLTISSVEDEDGATYYCQQFTTSTWTFGGGTKLEIK | − (≥75% of IgG control) | + | binds | does not significantly bind | + | binds | −
2 | G2.65 mouse: anti-ABCG2 antibody raised in mouse, listed in Table 2 (antibody, V domains shown) VH: QGQMHQSGAELVKPGASVKLSCKTSGFTFNSGYISWLKQKPRQSLEWIAWIYAGTGISNFNQKFTGKAQLTVDTSSSTAYMQLSSLTSADSAIYFCASGARKTLDFWGQGTSVTVSS VL: DIQMTQSSSYLSVSVGGRVTITCKASDQINYWLAWYQQKPGNAPRLLISGATSLETGVPSRFSGSGSGKDYTLSITSFQTEDVATYYCQQYWTTPYTFGGGTKVEIK | − (≥75% of IgG control) | − | does not significantly bind | does not significantly bind | + | binds | −
